Where a chain is given by its changes, count along the chain named. Numbers in names are those of the source.
T1: cHAD (Caenorhabditis elegans, UniProt P34439, Y209A)
T1 construct: gene F54C8.1; C-terminal GST tag cleaved; pEXS-CG vector, E. coli BL21(DE3)
T1 sequence (P34439 1-298 Y209A): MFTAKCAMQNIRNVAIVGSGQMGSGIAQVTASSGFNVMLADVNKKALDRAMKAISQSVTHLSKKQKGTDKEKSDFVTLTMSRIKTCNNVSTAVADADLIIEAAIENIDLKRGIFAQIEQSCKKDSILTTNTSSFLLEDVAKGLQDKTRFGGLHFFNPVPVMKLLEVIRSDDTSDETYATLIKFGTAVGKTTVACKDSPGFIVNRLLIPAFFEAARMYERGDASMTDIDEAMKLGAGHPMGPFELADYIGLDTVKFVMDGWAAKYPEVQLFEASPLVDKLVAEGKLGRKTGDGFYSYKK

T2: cHAD (Caenorhabditis elegans, UniProt P34439)
T2 construct: gene F54C8.1; C-terminal GST tag cleaved; pEXS-CG vector, E. coli BL21(DE3)
T2 sequence (P34439 1-298): T1 sequence (P34439 1-298 Y209A) with A209Y

B1: 3-hydroxyacyl-CoA dehydrogenase from C. elegans, wild type (enzyme, Caenorhabditis elegans)
chain: T1 sequence (P34439 1-298 Y209A) with A209Y
notes: 3-hydroxyacyl-CoA dehydrogenase (cHAD), Caenorhabditis elegans, WormBase WBGene00010035, GenBank CAA80153.1; N-terminal domain 9-194, loop 195-201 and C-terminal domain 202-297 described in the structure; vector pEXS-CG (derived from pET-22b(+)); also called cHAD; wild type cHAD; not shown: GST, C-terminal, cleaved
B2: 3-hydroxyacyl-CoA dehydrogenase from C. elegans, R204A mutant (enzyme, Caenorhabditis elegans)
chain: T1 sequence (P34439 1-298 Y209A) with R204A, A209Y
notes: 3-hydroxyacyl-CoA dehydrogenase (cHAD), Caenorhabditis elegans, WormBase WBGene00010035, GenBank CAA80153.1; as m1 with R204A; Made by overlapping PCR from the wild type plasmid, ligated into pEXS-CG (BamHI, EcoRI); also called cHAD R204A; source: E. coli BL21 (DE3), purified (same procedure as the wild type); not shown: GST, C-terminal, cleaved
B3: 3-hydroxyacyl-CoA dehydrogenase from C. elegans, Y209A mutant (enzyme, Caenorhabditis elegans)
chain: T1 sequence (P34439 1-298 Y209A)
notes: 3-hydroxyacyl-CoA dehydrogenase (cHAD), Caenorhabditis elegans, WormBase WBGene00010035, GenBank CAA80153.1; as m1 with Y209A; Made by overlapping PCR from the wild type plasmid, ligated into pEXS-CG (BamHI, EcoRI); also called cHAD Y209A; source: E. coli BL21 (DE3), purified (same procedure as the wild type); not shown: GST, C-terminal, cleaved
B4: 3-hydroxyacyl-CoA dehydrogenase from C. elegans, R204A/Y209A mutant (enzyme, Caenorhabditis elegans)
chain: T1 sequence (P34439 1-298 Y209A) with R204A
notes: 3-hydroxyacyl-CoA dehydrogenase (cHAD), Caenorhabditis elegans, WormBase WBGene00010035, GenBank CAA80153.1; as m1 with R204A and Y209A; Made by overlapping PCR from the wild type plasmid, ligated into pEXS-CG (BamHI, EcoRI); also called cHAD R204A/Y209A; source: E. coli BL21 (DE3), purified (same procedure as the wild type); not shown: GST, C-terminal, cleaved

Tests used:
cHAD [1] = molecular target: T1, cHAD; experiment: Trp-NADH FRET titration, ex […] nm, em […] nm, Hill fit; assay type: binding; settings: 10 mM citrate/phosphate pH 7.0, 150 mM NaCl, ambient temperature, 0.58 µM protein, 0-340 µM NADH
cHAD [2] = molecular target: T2, cHAD; experiment: difference absorption spectroscopy of the ternary charge-transfer complex, […] nm; assay type: binding; settings: 2 mM NAD+ with 2 mM acetoacetyl-CoA, 0.2 M citrate/phosphate pH 7.0, ambient temperature, 2 mg/ml protein; abortive ternary complex
[3] = molecular target: the molecule itself; experiment: SEC-MALS; SEC-LS/UV/RI; WTC-030S5 column, 20 mM MES pH 6.0, 100 mM sodium chloride; 100 µg protein injected, 0.5 ml/min
purified protein = substrate: CC(=O)CC(=O)SCCNC(=O)CCNC(=O)[C@H](O)C(C)(C)COP(=O)(O)OP(=O)(O)OC[C@H]1O[C@@H](n2cnc3c(N)ncnc32)[C@H](O)[C@@H]1OP(=O)(O)O; experiment: purified protein; assay type: biochemical, Caenorhabditis elegans; settings: 100 µM NADH (saturating), 0.1 M citrate/phosphate pH 7.0, 0.1 mM dithiothreitol, 298 K, 23 nM protein, AACoA 30-70 µM, 25.0 °C
[4] = molecular target: the molecule itself; experiment: cross-linking; EGS, protein:EGS 1:50, on ice 40 min; protein diluted to 2 mg/ml in 0.2 M Na2HPO4, 0.1 M citrate pH 7.0; SDS-PAGE

Molecule | Trp-NADH FRET titration, ex 270 nm, em 460 nm, Hill fit (cHAD [1]) | difference absorption spectroscopy of the ternary charge-transfer complex, 412 n (cHAD [2]) | stoichiometry N [3] | Km (purified protein) [µM] | Vmax (purified protein) [µmol/min/mg] | kcat (purified protein) [s⁻¹] | kcat/Km (purified protein) [M⁻¹ s⁻¹] | binding result [4]
NC(=O)C1=CN([C@@H]2O[C@H](COP(=O)(O)OP(=O)(O)OC[C@H]3O[C@@H](n4cnc5c(N)ncnc54)[C@H](O)[C@@H]3O)[C@@H](O)[C@H]2O)C=CC1 [NADH] | Wild type and Y209A mutant cHAD show exactly the same number of Hill coefficient | – | – | – | – | – | – | –
NC(=O)c1ccc[n+]([C@@H]2O[C@H](COP(=O)(O)OP(=O)(O)OC[C@H]3O[C@@H](n4cnc5c(N)ncnc54)[C@H](O)[C@@H]3O)[C@@H](O)[C@H]2O)c1 [NAD^+] | – | difference spectroscopy of cHAD·NAD^+·AACoA ternary complex | – | – | – | – | – | –
B1 | – | – | 2 | 72.0 ± 13.4 | 78 | 45 | 600000 | –
B2 | – | – | – | 83.2 ± 9.7 | 48 | 28 | 300000 | binds
B3 | – | – | – | 50.4 ± 11.0 | 30 | 17 | 300000 | binds
B4 | – | – | – | 115.6 ± 24.5 | 18 | 10 | 90000 | binds

Reference: PMC3999109, “Dimerization Interface of 3-Hydroxyacyl-CoA Dehydrogenase Tunes the Formation of Its Catalytic Intermediate” (PLoS ONE, 2014)
